Test results published in US20050208046A1.

Target: FLAG-TWEAKR (human)

M2 anti-FLAG monoclonal antibody cross-linked with goat anti-mouse IgG (tool reagent)
BrdU incorporation of transfected HUVEC: 6 fold
